T1: human neuropeptide Y2 receptor (human, UniProt P49146 1-381)
T1 construct: whole, on cells; also called hNPY2 receptor; hNPY2-R
T1 sequence (looked up): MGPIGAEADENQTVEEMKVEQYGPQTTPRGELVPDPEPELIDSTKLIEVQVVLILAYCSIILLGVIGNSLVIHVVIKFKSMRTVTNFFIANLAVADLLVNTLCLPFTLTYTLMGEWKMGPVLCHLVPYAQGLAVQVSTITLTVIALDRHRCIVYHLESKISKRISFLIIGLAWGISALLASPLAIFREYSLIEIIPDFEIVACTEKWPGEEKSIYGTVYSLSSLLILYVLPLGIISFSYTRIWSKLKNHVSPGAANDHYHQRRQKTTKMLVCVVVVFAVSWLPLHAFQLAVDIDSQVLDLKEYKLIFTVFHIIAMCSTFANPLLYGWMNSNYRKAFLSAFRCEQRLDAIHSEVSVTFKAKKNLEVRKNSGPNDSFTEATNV

B1: Compound 151 (peptide)
peptide: Isovaleryl-APEK([AEEA-AEEA-γGlu-C18 diacid])PEAEASPEELQRYYVSLRHYYNWLTRQRY-NH2
SMILES: CC(C)CC(=O)N[C@@H](C)C(=O)N1CCC[C@H]1C(=O)N[C@@H](CCC(=O)O)C(=O)N[C@@H](CCCCNC(=O)COCCOCCNC(=O)COCCOCCNC(=O)CC[C@H](NC(=O)CCCCCCCCCCCCCCCCC(=O)O)C(=O)O)C(=O)N1CCC[C@H]1C(=O)N[C@@H](CCC(=O)O)C(=O)N[C@@H](C)C(=O)N[C@@H](CCC(=O)O)C(=O)N[C@@H](C)C(=O)N[C@@H](CO)C(=O)N1CCC[C@H]1C(=O)N[C@@H](CCC(=O)O)C(=O)N[C@@H](CCC(=O)O)C(=O)N[C@@H](CC(C)C)C(=O)N[C@@H](CCC(N)=O)C(=O)N[C@@H](CCCNC(=N)N)C(=O)N[C@@H](Cc1ccc(O)cc1)C(=O)N[C@@H](Cc1ccc(O)cc1)C(=O)N[C@H](C(=O)N[C@@H](CO)C(=O)N[C@@H](CC(C)C)C(=O)N[C@@H](CCCNC(=N)N)C(=O)N[C@@H](Cc1c[nH]cn1)C(=O)N[C@@H](Cc1ccc(O)cc1)C(=O)N[C@@H](Cc1ccc(O)cc1)C(=O)N[C@@H](CC(N)=O)C(=O)N[C@@H](Cc1c[nH]c2ccccc12)C(=O)N[C@@H](CC(C)C)C(=O)N[C@H](C(=O)N[C@@H](CCCNC(=N)N)C(=O)N[C@@H](CCC(N)=O)C(=O)N[C@@H](CCCNC(=N)N)C(=O)N[C@@H](Cc1ccc(O)cc1)C(N)=O)[C@@H](C)O)C(C)C
B2: Compound 155 (peptide)
peptide: Isovaleryl-APEK([AEEA-AEEA-γGlu-C18 diacid])PEEDASPEETQRYYVSLRHYYNWLTRQRY-NH2
SMILES: CC(C)CC(=O)N[C@@H](C)C(=O)N1CCC[C@H]1C(=O)N[C@@H](CCC(=O)O)C(=O)N[C@@H](CCCCNC(=O)COCCOCCNC(=O)COCCOCCNC(=O)CC[C@H](NC(=O)CCCCCCCCCCCCCCCCC(=O)O)C(=O)O)C(=O)N1CCC[C@H]1C(=O)N[C@@H](CCC(=O)O)C(=O)N[C@@H](CCC(=O)O)C(=O)N[C@@H](CC(=O)O)C(=O)N[C@@H](C)C(=O)N[C@@H](CO)C(=O)N1CCC[C@H]1C(=O)N[C@@H](CCC(=O)O)C(=O)N[C@@H](CCC(=O)O)C(=O)N[C@H](C(=O)N[C@@H](CCC(N)=O)C(=O)N[C@@H](CCCNC(=N)N)C(=O)N[C@@H](Cc1ccc(O)cc1)C(=O)N[C@@H](Cc1ccc(O)cc1)C(=O)N[C@H](C(=O)N[C@@H](CO)C(=O)N[C@@H](CC(C)C)C(=O)N[C@@H](CCCNC(=N)N)C(=O)N[C@@H](Cc1c[nH]cn1)C(=O)N[C@@H](Cc1ccc(O)cc1)C(=O)N[C@@H](Cc1ccc(O)cc1)C(=O)N[C@@H](CC(N)=O)C(=O)N[C@@H](Cc1c[nH]c2ccccc12)C(=O)N[C@@H](CC(C)C)C(=O)N[C@H](C(=O)N[C@@H](CCCNC(=N)N)C(=O)N[C@@H](CCC(N)=O)C(=O)N[C@@H](CCCNC(=N)N)C(=O)N[C@@H](Cc1ccc(O)cc1)C(N)=O)[C@@H](C)O)C(C)C)[C@@H](C)O
B3: Compound 153 (peptide)
peptide: Isovaleryl-APEK([AEEA-AEEA-γGlu-C18 diacid])VEEEASPEELQRYYVSLRHYYNWLTRQRY-NH2
SMILES: CC(C)CC(=O)N[C@@H](C)C(=O)N1CCC[C@H]1C(=O)N[C@@H](CCC(=O)O)C(=O)N[C@@H](CCCCNC(=O)COCCOCCNC(=O)COCCOCCNC(=O)CC[C@H](NC(=O)CCCCCCCCCCCCCCCCC(=O)O)C(=O)O)C(=O)N[C@H](C(=O)N[C@@H](CCC(=O)O)C(=O)N[C@@H](CCC(=O)O)C(=O)N[C@@H](CCC(=O)O)C(=O)N[C@@H](C)C(=O)N[C@@H](CO)C(=O)N1CCC[C@H]1C(=O)N[C@@H](CCC(=O)O)C(=O)N[C@@H](CCC(=O)O)C(=O)N[C@@H](CC(C)C)C(=O)N[C@@H](CCC(N)=O)C(=O)N[C@@H](CCCNC(=N)N)C(=O)N[C@@H](Cc1ccc(O)cc1)C(=O)N[C@@H](Cc1ccc(O)cc1)C(=O)N[C@H](C(=O)N[C@@H](CO)C(=O)N[C@@H](CC(C)C)C(=O)N[C@@H](CCCNC(=N)N)C(=O)N[C@@H](Cc1c[nH]cn1)C(=O)N[C@@H](Cc1ccc(O)cc1)C(=O)N[C@@H](Cc1ccc(O)cc1)C(=O)N[C@@H](CC(N)=O)C(=O)N[C@@H](Cc1c[nH]c2ccccc12)C(=O)N[C@@H](CC(C)C)C(=O)N[C@H](C(=O)N[C@@H](CCCNC(=N)N)C(=O)N[C@@H](CCC(N)=O)C(=O)N[C@@H](CCCNC(=N)N)C(=O)N[C@@H](Cc1ccc(O)cc1)C(N)=O)[C@@H](C)O)C(C)C)C(C)C
B4: Compound 152 (peptide)
peptide: Isovaleryl-APEK([AEEA-AEEA-γGlu-C18 diacid])AEEDASPEEIQRYYVSLRHYYNWLTRQRY-NH2
SMILES: CC[C@H](C)[C@H](NC(=O)[C@H](CCC(=O)O)NC(=O)[C@H](CCC(=O)O)NC(=O)[C@@H]1CCCN1C(=O)[C@H](CO)NC(=O)[C@H](C)NC(=O)[C@H](CC(=O)O)NC(=O)[C@H](CCC(=O)O)NC(=O)[C@H](CCC(=O)O)NC(=O)[C@H](C)NC(=O)[C@H](CCCCNC(=O)COCCOCCNC(=O)COCCOCCNC(=O)CC[C@H](NC(=O)CCCCCCCCCCCCCCCCC(=O)O)C(=O)O)NC(=O)[C@H](CCC(=O)O)NC(=O)[C@@H]1CCCN1C(=O)[C@H](C)NC(=O)CC(C)C)C(=O)N[C@@H](CCC(N)=O)C(=O)N[C@@H](CCCNC(=N)N)C(=O)N[C@@H](Cc1ccc(O)cc1)C(=O)N[C@@H](Cc1ccc(O)cc1)C(=O)N[C@H](C(=O)N[C@@H](CO)C(=O)N[C@@H](CC(C)C)C(=O)N[C@@H](CCCNC(=N)N)C(=O)N[C@@H](Cc1c[nH]cn1)C(=O)N[C@@H](Cc1ccc(O)cc1)C(=O)N[C@@H](Cc1ccc(O)cc1)C(=O)N[C@@H](CC(N)=O)C(=O)N[C@@H](Cc1c[nH]c2ccccc12)C(=O)N[C@@H](CC(C)C)C(=O)N[C@H](C(=O)N[C@@H](CCCNC(=N)N)C(=O)N[C@@H](CCC(N)=O)C(=O)N[C@@H](CCCNC(=N)N)C(=O)N[C@@H](Cc1ccc(O)cc1)C(N)=O)[C@@H](C)O)C(C)C
B5: Compound 158 (peptide)
peptide: Isovaleryl-APEK([AEEA-AEEA-γGlu-C18 diacid])PEEDASPEELQRYYVSLRHYWNYLTRQRY-NH2
SMILES: CC(C)CC(=O)N[C@@H](C)C(=O)N1CCC[C@H]1C(=O)N[C@@H](CCC(=O)O)C(=O)N[C@@H](CCCCNC(=O)COCCOCCNC(=O)COCCOCCNC(=O)CC[C@H](NC(=O)CCCCCCCCCCCCCCCCC(=O)O)C(=O)O)C(=O)N1CCC[C@H]1C(=O)N[C@@H](CCC(=O)O)C(=O)N[C@@H](CCC(=O)O)C(=O)N[C@@H](CC(=O)O)C(=O)N[C@@H](C)C(=O)N[C@@H](CO)C(=O)N1CCC[C@H]1C(=O)N[C@@H](CCC(=O)O)C(=O)N[C@@H](CCC(=O)O)C(=O)N[C@@H](CC(C)C)C(=O)N[C@@H](CCC(N)=O)C(=O)N[C@@H](CCCNC(=N)N)C(=O)N[C@@H](Cc1ccc(O)cc1)C(=O)N[C@@H](Cc1ccc(O)cc1)C(=O)N[C@H](C(=O)N[C@@H](CO)C(=O)N[C@@H](CC(C)C)C(=O)N[C@@H](CCCNC(=N)N)C(=O)N[C@@H](Cc1c[nH]cn1)C(=O)N[C@@H](Cc1ccc(O)cc1)C(=O)N[C@@H](Cc1c[nH]c2ccccc12)C(=O)N[C@@H](CC(N)=O)C(=O)N[C@@H](Cc1ccc(O)cc1)C(=O)N[C@@H](CC(C)C)C(=O)N[C@H](C(=O)N[C@@H](CCCNC(=N)N)C(=O)N[C@@H](CCC(N)=O)C(=O)N[C@@H](CCCNC(=N)N)C(=O)N[C@@H](Cc1ccc(O)cc1)C(N)=O)[C@@H](C)O)C(C)C

*1 amine or outer side, *2 acyl side, *3 side chain or, on linkers, in order; H or OH if unused. Side-chain parts run from the residue outwards. The star is where a group is joined. C18 diacid = O=C(O)CCCCCCCCCCCCCCCCC(=O)*; γGlu = O=C(O)[C@H](CCC(=O)[*:2])N[*:1]; Isovaleryl = CC(C)CC(=O)*; AEEA = NCCOCCOCC(=O)O

In the test the target is T1, human neuropeptide Y2 receptor. Nature of the test: radioligand competition (125I-PYY(1-36)), hNPY2R membranes. In outline: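 Commercial human Y2 receptor membranes (0.5 μg protein/well) were incubated with peptide for 2 h at room temperature in 50 mM HEPES, 5 mM MgCl₂, 1 mM CaCl₂, pH 7.4, with 0.2% ovalbumin. Bound radioligand was separated on PEI-soaked GF/C filters and counted by scintillation, and IC₅₀ came from nonlinear sigmoidal regression.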
The molecule B1 had a Ki of 1.43 nM. As for B2, the affinity, expressed as Ki, was 2.05 nM.

Take B3: the affinity, expressed as Ki, was 14.4 nM. B4 registered a Ki of 5.18 nM. In turn, B5 returned a Ki of 4.43 nM.

(Values after patent publication US20210139548A1 (published 2021).)
